The assay has as its target heterodimeric LIF receptor (murine gp130 and LIFRα) on transiently transfected Ba/F3 cells (mouse) (UniProt Q00560). Description: cell-based or functional assay.

The text below walks through data of patent EP2226633A1.

heterodimeric LIF receptor (murine gp130 and LIFRα) on transiently transfected Ba/F3 cells (mouse), sequence (Q00560 23-917, chain 1 of 2): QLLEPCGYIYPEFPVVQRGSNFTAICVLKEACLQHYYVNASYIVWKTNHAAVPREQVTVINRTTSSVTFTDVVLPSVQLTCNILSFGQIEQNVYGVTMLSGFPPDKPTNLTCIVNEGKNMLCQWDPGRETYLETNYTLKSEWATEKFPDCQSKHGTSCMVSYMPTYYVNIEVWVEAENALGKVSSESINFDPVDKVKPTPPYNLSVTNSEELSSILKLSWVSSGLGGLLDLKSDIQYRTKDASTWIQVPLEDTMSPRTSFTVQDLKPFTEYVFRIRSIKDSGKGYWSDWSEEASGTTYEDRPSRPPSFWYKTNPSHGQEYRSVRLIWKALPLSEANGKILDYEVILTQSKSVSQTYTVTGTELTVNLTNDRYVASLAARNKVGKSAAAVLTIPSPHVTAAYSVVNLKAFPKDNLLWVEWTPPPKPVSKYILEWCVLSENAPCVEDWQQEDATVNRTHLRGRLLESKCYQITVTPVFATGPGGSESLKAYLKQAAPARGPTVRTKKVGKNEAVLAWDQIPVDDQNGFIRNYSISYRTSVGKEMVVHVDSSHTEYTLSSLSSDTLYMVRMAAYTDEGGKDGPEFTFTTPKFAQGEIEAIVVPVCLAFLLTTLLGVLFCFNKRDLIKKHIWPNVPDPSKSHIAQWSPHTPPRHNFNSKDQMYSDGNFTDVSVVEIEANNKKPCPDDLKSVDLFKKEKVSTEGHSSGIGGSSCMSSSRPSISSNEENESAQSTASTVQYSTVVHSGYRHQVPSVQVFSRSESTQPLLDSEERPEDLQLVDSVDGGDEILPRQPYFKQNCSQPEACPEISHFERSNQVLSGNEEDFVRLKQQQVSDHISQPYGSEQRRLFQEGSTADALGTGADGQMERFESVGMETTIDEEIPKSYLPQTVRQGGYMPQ
heterodimeric LIF receptor (murine gp130 and LIFRα) on transiently transfected Ba/F3 cells (mouse), sequence (P42703 44-1092, chain 2 of 2, further chain): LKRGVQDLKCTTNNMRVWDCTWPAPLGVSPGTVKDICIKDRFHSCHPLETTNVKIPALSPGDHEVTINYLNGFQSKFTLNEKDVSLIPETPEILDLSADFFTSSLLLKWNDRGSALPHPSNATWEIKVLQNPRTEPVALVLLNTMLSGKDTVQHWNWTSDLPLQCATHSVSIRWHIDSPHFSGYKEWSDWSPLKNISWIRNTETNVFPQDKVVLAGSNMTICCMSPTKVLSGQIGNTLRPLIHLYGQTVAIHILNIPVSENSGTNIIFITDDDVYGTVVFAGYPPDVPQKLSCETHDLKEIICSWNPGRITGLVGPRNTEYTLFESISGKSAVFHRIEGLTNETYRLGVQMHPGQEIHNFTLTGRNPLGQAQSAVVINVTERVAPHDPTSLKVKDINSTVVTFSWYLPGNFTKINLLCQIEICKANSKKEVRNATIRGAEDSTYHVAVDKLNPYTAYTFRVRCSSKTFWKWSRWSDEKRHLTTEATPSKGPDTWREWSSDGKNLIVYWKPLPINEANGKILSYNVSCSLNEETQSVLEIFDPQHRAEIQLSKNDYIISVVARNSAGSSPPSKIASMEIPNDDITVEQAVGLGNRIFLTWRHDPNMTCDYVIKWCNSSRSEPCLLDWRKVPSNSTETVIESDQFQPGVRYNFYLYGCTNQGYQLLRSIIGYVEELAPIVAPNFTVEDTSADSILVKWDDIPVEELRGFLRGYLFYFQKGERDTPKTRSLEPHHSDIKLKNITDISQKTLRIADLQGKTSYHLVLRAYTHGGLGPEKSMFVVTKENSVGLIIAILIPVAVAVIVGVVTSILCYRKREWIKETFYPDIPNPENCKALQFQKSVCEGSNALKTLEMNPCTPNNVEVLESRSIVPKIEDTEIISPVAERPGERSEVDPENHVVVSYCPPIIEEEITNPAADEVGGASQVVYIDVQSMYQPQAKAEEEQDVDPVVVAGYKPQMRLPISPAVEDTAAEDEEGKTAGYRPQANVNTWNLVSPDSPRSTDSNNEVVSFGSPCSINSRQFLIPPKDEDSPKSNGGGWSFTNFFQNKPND

In turn, “human EPO splice variant hS3 (complete loss of exon 3) with C-terminal V5/His tag, produced in HEK293 cells (from UniProt P01588 28-193) (ligand)” gave a suppression of proliferation of M1 cells (MTT assay, 72 h, 15 nM hS3) of 10%.
